pKd: −log10 of the molar value. Where a SMILES comes first, the peptide text is derived from it. Bridges are numbered along the chain shown (N, C = ends). The star is where a group is joined. X1 = CC1=CC(C)(C)N(CCCS(=O)(=O)O)c2cc3c(cc21)/C(=C/C=C/C1=[N+](CCCS(=O)(=O)O)c2ccc(S(=O)(=O)[O-])cc2C1(C)CCCC(=O)*)C=C(C(C)(C)C)O3; X5 = CCN1c2cc3c(cc2C(C)=CC1(C)C)/C(=C/C=C/C1=[N+](CCCS(=O)(=O)O)c2ccc(S(=O)(=O)[O-])cc2C1(C)CCCC(=O)*)C=C(C(C)(C)C)O3; X4 = CCN(CC)c1ccc2c(c1)OC(C(C)(C)C)=C/C2=C\C=C\C1=[N+](CCCS(=O)(=O)O)c2ccc(S(=O)(=O)[O-])cc2C1(C)CCCC(=O)*; X6 = CCN(CC)c1ccc2c(c1)OC(C(C)(C)C)=C/C2=C\C=C\C1=[N+](CCCCCC(=O)*)c2ccc(S(=O)(=O)[O-])cc2C1(C)C

Data set [1] in a line: in vitro. The settings on record: mouse, plasma. The source says: (§1) The change of the polarization value was used to assess the binding of the Compound to human serum albumin as a low change of polarisation value is associated to low binding being appropriate for in-vivo use.
The target in data set [2] is T1, human serum albumin (Homo sapiens, UniProt P02768).
T1 sequence (P02768 25-609): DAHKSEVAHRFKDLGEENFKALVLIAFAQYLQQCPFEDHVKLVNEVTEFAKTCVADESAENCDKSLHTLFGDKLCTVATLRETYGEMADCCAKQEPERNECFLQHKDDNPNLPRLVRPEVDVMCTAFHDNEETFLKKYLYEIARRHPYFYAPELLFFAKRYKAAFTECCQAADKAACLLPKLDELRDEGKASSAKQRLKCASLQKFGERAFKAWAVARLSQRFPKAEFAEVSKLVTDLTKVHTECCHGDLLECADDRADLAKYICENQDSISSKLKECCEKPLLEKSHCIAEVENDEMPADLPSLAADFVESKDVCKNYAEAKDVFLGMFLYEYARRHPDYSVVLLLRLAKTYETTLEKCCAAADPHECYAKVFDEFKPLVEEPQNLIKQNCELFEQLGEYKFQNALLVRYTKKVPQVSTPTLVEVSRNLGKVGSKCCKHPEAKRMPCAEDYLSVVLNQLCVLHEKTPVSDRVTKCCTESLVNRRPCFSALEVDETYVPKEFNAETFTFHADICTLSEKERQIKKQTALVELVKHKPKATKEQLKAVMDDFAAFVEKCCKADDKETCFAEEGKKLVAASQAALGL
The target in data set [3] is T1, human serum albumin. Kind of data set: in vitro.
Text: Fluorescence polarisation assay was used to examine the affinity binding of the imaging agent towards the cMet target as well as the binding properties related to plasma proteins. The principle of the fluorescence polarisation method can briefly be described as follows:
as §1

Data set [4] addresses T2, human c-Met/Fc chimera (Homo sapiens, UniProt P08581).
T2 construct: Fc (immunoglobulin Fc fusion partner); purchased R&D Systems
Kind of data set: Fluorescence polarisation assay, affinity binding to cMet. The following applies: 5 nM dye-labelled peptide, c-Met/Fc 0-250 nM, 10 min at 30° C., one-site binding. Here is the method: Monochromatic light passes through a […] polarizing filter and excites fluorescent molecules in the sample. Only those molecules that oriented properly in the vertically polarized plane adsorb light, become excited, and subsequently emit light. The emitted light is measured in both horizontal and vertical planes. The anisotropy value (A), is the ratio between the light intensities following the equation
The fluorescence anisotropy measurements were performed in 384-well microplates in a volume of 10 μL in binding buffer (PBS, 0.01% Tween-20, pH 7.5) using a Tecan Safire fluorescence polarisation plate reader (Tecan, US) at Ex 635/Em 678 nm. The concentration of dye-labelled peptide was held constant (5 nM) and the concentration of the human c-Met/Fc chimera (R&D Systems) was varied from 0-250 nM. Binding mixtures were equilibrated in the microplate for 10 min at 30° C. The observed change in anisotropy was fitted to the equation: […]
where robs is the observed anisotropy, rfree is the anisotropy of the free peptide, rbound is the anisotropy of the bound peptide, Kd is the dissociation constant, cMet is the total c-Met concentration, and P is the total dye-labelled peptide concentration. The equation assumes that the synthetic peptide and the receptor form a reversible complex in solution with 1:1 stoichiometry. Data fitting was done via nonlinear regression using SigmaPlot software to obtain the Kd value (one-site binding).
Compounds 1 to 6 were tested for binding towards human c-Met (Fc chimera).
On the technique in general: In fluorescence polarisation assays a small probe gives low polarisation when free and higher when bound to something large.

Data set [5] is described as follows: Limited acute dose toxicity study in male rats. The following applies: i.v. In kind it is in vivo, rat. Here is the method:
A limited acute dose toxicity study was conducted to investigate the tolerance of Compound 6 at 100 times the preclinical imaging dose (50 nmol/kg body weight).
The compound was injected intravenously in male rats, and the animals were sacrificed at 1, 14, 21 and 28 days post injection (p.i.). At necropsy, the major organs were inspected for gross pathology, and the kidneys were taken into neutral buffered formalin for subsequent histomorphological evaluation. A weak blue colouration of the skin and a moderate blue colouration of the urine were observed immediately after injection, which disappeared within 1 day p.i. […] The other minor changes seen were incidental and common in young adult laboratory rats. Strong fluorescence staining of blood vessels in the kidney was observed on day 1 p.i.

T2 sequence (P08581 with tags, fused parts or gaps limits assumed): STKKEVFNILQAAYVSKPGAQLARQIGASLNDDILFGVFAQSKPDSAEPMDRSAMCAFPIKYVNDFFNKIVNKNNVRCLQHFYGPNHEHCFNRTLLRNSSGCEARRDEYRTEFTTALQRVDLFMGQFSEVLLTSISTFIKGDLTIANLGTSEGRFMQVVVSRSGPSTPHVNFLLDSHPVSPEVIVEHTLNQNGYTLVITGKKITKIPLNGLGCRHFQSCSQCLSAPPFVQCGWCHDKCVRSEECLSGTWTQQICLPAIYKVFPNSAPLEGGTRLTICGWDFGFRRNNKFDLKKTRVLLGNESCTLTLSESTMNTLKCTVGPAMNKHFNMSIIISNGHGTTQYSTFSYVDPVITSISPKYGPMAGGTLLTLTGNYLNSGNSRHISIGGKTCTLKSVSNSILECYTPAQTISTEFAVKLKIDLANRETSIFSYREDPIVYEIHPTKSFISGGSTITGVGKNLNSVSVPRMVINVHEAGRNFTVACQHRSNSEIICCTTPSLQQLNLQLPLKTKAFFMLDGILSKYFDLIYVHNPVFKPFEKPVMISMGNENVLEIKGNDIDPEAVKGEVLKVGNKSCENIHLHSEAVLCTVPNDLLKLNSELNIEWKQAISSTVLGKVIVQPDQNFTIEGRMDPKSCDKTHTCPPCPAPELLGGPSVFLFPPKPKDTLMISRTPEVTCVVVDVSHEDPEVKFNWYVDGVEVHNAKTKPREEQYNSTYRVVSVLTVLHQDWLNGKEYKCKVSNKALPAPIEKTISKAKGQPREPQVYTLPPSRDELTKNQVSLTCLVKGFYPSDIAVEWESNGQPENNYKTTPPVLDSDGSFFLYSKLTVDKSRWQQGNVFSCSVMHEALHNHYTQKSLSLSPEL
T2 sequence (P08581 25-307 limits assumed, change not shown): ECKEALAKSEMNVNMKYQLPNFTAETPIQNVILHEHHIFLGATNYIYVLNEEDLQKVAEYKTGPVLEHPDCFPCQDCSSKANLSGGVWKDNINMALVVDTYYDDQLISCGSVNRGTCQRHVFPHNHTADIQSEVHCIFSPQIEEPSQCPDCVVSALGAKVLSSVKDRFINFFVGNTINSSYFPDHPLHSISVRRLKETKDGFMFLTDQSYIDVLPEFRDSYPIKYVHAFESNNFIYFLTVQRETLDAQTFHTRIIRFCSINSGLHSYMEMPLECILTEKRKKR

Take `CCN(CC)c1ccc2c(c1)OC(C(C)(C)C)=C/C2=C\C=C\C1=[N+](CCCCCC(=O)NCCCC[C@H](NC(=O)CNC(=O)CNC(=O)CNC(=O)[C@@H](NC(=O)CNC(=O)[C@H](CCC(=O)O)NC(=O)[C@@H](NC(=O)[C@H](CCC(=O)O)NC(=O)[C@H](Cc2ccc(O)cc2)NC(=O)[C@@H]2CSSC[C@H](NC(=O)[C@H](CO)NC(=O)CNC(=O)[C@H](C)NC(C)=O)C(=O)N[C@@H](Cc3ccc(O)cc3)C(=O)N[C@H]3CSSC[C@H](NC(=O)[C@H](CCC(=O)O)NC(=O)[C@H](Cc4ccccc4)NC(=O)[C@H](CCCNC(=N)N)NC(=O)[C@@H]4CCCN4C(=O)[C@@H]4CCCN4C(=O)CNC(=O)[C@H](CO)NC3=O)C(=O)N[C@@H](Cc3c[nH]c4ccccc34)C(=O)N2)[C@@H](C)O)[C@@H](C)O)C(N)=O)c2ccc(S(=O)(=O)[O-])cc2C1(C)C` [Compound 1] (Ac-AGSCYCSGPPRFECWCYETEGTGGGK(X6)-NH2; disulfide 4-16, 6-14): in data set [1], the share remaining – broadly, the share of the starting amount still present when the sample was taken – at 2 h is greater than 95%. In addition, in data set [2], the “Binding human serum albumin (Biacore)” value is recorded as “Very high”. Further, in data set [3], the free fraction (fraction unbound) (commonly the share of the substance not bound to proteins or other matrix) was 0.64. Moreover, the negative logarithm of the Kd (pKd) – broadly, −log10 of the Kd, conventionally taken in molar units – in data set [4] is 8.66.
In data set [1], `CCN(CC)c1ccc2c(c1)OC(C(C)(C)C)=C/C2=C\C=C\C1=[N+](CCCS(=O)(=O)O)c2ccc(S(=O)(=O)[O-])cc2C1(C)CCCC(=O)NCCCC[C@H](NC(=O)CNC(=O)CNC(=O)CNC(=O)[C@@H](NC(=O)CNC(=O)[C@H](CCC(=O)O)NC(=O)[C@@H](NC(=O)[C@H](CCC(=O)O)NC(=O)[C@H](Cc1ccc(O)cc1)NC(=O)[C@@H]1CSSC[C@H](NC(=O)[C@H](CO)NC(=O)CNC(=O)[C@H](C)NC(C)=O)C(=O)N[C@@H](Cc2ccc(O)cc2)C(=O)N[C@H]2CSSC[C@H](NC(=O)[C@H](CCC(=O)O)NC(=O)[C@H](Cc3ccccc3)NC(=O)[C@H](CCCNC(=N)N)NC(=O)[C@@H]3CCCN3C(=O)[C@@H]3CCCN3C(=O)CNC(=O)[C@H](CO)NC2=O)C(=O)N[C@@H](Cc2c[nH]c3ccccc23)C(=O)N1)[C@@H](C)O)[C@@H](C)O)C(N)=O` (stereo partly drawn) [Compound 2] (Ac-AGSCYCSGPPRFECWCYETEGTGGGK(X4)-NH2; disulfide 4-16, 6-14) yielded a fraction remaining at 2 h greater than 95%. Moreover, the “Binding human serum albumin (Biacore)” value in data set [2] is “Very low”. In addition, in data set [3], the fraction unbound is 0.67. This compound also showed a negative logarithm of the Kd (pKd) in data set [4] of 9.30.
In data set [1], `CCN1c2cc3c(cc2C(C)=CC1(C)C)/C(=C/C=C/C1=[N+](CCCS(=O)(=O)O)c2ccc(S(=O)(=O)[O-])cc2C1(C)CCCC(=O)NCCCC[C@H](NC(=O)CNC(=O)CNC(=O)CNC(=O)[C@@H](NC(=O)CNC(=O)[C@H](CCC(=O)O)NC(=O)[C@@H](NC(=O)[C@H](CCC(=O)O)NC(=O)[C@H](Cc1ccc(O)cc1)NC(=O)[C@@H]1CSSC[C@H](NC(=O)[C@H](CO)NC(=O)CNC(=O)[C@H](C)NC(C)=O)C(=O)N[C@@H](Cc2ccc(O)cc2)C(=O)N[C@H]2CSSC[C@H](NC(=O)[C@H](CCC(=O)O)NC(=O)[C@H](Cc4ccccc4)NC(=O)[C@H](CCCNC(=N)N)NC(=O)[C@@H]4CCCN4C(=O)[C@@H]4CCCN4C(=O)CNC(=O)[C@H](CO)NC2=O)C(=O)N[C@@H](Cc2c[nH]c4ccccc24)C(=O)N1)[C@@H](C)O)[C@@H](C)O)C(N)=O)C=C(C(C)(C)C)O3` (stereo partly drawn) [Compound 5] (Ac-AGSCYCSGPPRFECWCYETEGTGGGK(X5)-NH2; disulfide 4-16, 6-14) had an amount remaining at 2 h greater than 95%. Besides, the “Binding human serum albumin (Biacore)” value in data set [2] is reported as “Medium”. In data set [3], this compound gave an unbound share (fraction unbound) of 0.51. In data set [4], this compound had a pKd of 8.66.
For `CC(=O)N[C@@H](C)C(=O)NCC(=O)N[C@@H](CO)C(=O)N[C@H]1CSSC[C@@H](C(=O)N[C@@H](Cc2ccc(O)cc2)C(=O)N[C@@H](CCC(=O)O)C(=O)N[C@H](C(=O)N[C@@H](CCC(=O)O)C(=O)NCC(=O)N[C@H](C(=O)NCC(=O)NCC(=O)NCC(=O)N[C@@H](CCCCNC(=O)CCCC2(C)C(/C=C/C=C3\C=C(C(C)(C)C)Oc4cc5c(cc43)C(C)=CC(C)(C)N5CCCS(=O)(=O)O)=[N+](CCCS(=O)(=O)O)c3ccc(S(=O)(=O)[O-])cc32)C(N)=O)[C@@H](C)O)[C@@H](C)O)NC(=O)[C@H](Cc2c[nH]c3ccccc23)NC(=O)[C@@H]2CSSC[C@H](NC(=O)[C@H](Cc3ccc(O)cc3)NC1=O)C(=O)N[C@@H](CO)C(=O)NCC(=O)N1CCC[C@H]1C(=O)N1CCC[C@H]1C(=O)N[C@@H](CCCNC(=N)N)C(=O)N[C@@H](Cc1ccccc1)C(=O)N[C@@H](CCC(=O)O)C(=O)N2` (stereo partly drawn) [Compound 6] (Ac-AGSCYCSGPPRFECWCYETEGTGGGK(X1)-NH2; disulfide 4-16, 6-14), in data set [1], the amount remaining at 2 h is greater than 95%. The “Fluorescence staining of blood vessels in the kidney” value in data set [5] (100 times dose, day 21 p.i. (strong on day 1, reduced by day 14)) was “not discernible from control”. The “Light microscopy of the kidneys” value in data set [5] (100 times dose, necropsy at 1, 14, 21 and 28 days p.i.) is “no Compound 6-related findings in the kidneys”. In addition, the Nephrotoxicity entry in data set [5] (100 times dose, no degeneration, necrosis or inflammation) is recorded as “low”. Also, the “Time to disappearance of blue colouration of skin and urine” value in data set [5] (100 times dose, observed immediately after injection) was no more than 1 days. In addition, the “Tolerance of a single intravenous administration” value in data set [5] (100 times the preclinical imaging dose (50 nmol/kg body weight)) was “well tolerated and without any drug substance related adverse effects”. Further, the “Binding human serum albumin (Biacore)” value in data set [2] is “Very low”. For the same compound, the free fraction (fraction unbound) in data set [3] is 0.54. In data set [4], this compound showed a pKd of 9.05.

Source of the values: US20100196282A1, “OPTICAL IMAGING AGENTS” (priority 2007, published 2010).
